Measured values published in patent US20100173005A1, “MICROPARTICLE FORMULATIONS FOR SUSTAINED-RELEASE OF BIOACTIVE COMPOUNDS” (POWDER PHARMACEUTICALS INCORPORATED, priority 1999, published 2010).

Legend:
[1] = Sustained release of lysozyme from sulfated dextran hydrogel beads: PBS wash then high salt elution, UV detection; format: physicochemical
Text: A preparation of cross-linked, sulfated dexan affinity chromatography resin beads were obtained from a commercial source (Sigma. St, Louis, Mo.). More particularly, 4% cross-linked sulfated beaded dextran was obtained as a lyophilized powder stabilized in lactose. The sulfate ligand will bind with a charged guest substance (e.g. a peptide or protein) at low salt concentration. This binding is reversible and the bound guest can be desorbed at a high salt concentration.
In the study, lysozyme (Sigma) was loaded into the beads using the techniques described in commonly held International Application No. PCT/GB00/00349.
Particularly, each gram of the sulfated dextran beads was washed with approximately 3×500 ml deionized water. Excess water was removed by vacuum filtration. A loading solution was prepared by dissolving 4.00 g lysozyme in 200 ml deionized water, yielding a 20 mg/ml solution. The loading solution was added to the hydrated dextran beads at a 1:1 ratio to provide a suspension. The suspension was stirred for one hour, and excess solution was drained from the hydrated beads. The loaded beads were then divided into two portions. The first portion (5.7 cc, experimental) was placed into a column (Econo column, BioRad, Hercules, Calif.) and washed with a phosphate buffered saline (PBS) solution (pH 7.4) for 19.6 hours, then eluted with 21.2 ml of a high salt elution buffer (1.0M ammonium sulfate, 50 mM sodium phosphate, pH 7.2). […] The amount of lysozyme released from the dextran beads during the PBS wash was determined by comparison against the amount of lysozyme eluted by the elution solution for both the experimental and the control portions.
Lysozyme concentration was determined using a UV detector (BioRad UV detector). A standard curve (UV absorption vs lysozyme concentration) was prepared by measuring the UV absorption of stock lysozyme solutions at different concentration ranging from 1 mg/ml to 4 mg/ml, Concentrations of the unknowns were then determined by extrapolation of the standard curve. […]

[2] = Repeat sustained release study of lysozyme from sulfated dextran beads: PBS elution at 0.84 ml/min, HPLC analysis; format: physicochemical
Experimental: The sustained release study described in the above Example was repeated except, in this instance, a different elution rate was used to determine if the rate of release of the lysozyme guest substance from the dextran is a function of the flow rate of the elution buffer.
More particularly, sulfated dextran beads were loaded with lysozyme as described in the above Example. The specifics of the loading were as follows: 42.4 g of the hydrated dextran beads was stirred in 100 ml of lysozyme solution (to yield a 20.11 mg/ml solution) for 1 hour. The loaded beads were then loaded into a column as described above for a further sustained release study.
For the PBS elution, the PBS wash (pH 7.4) was used to elute lysozyme from the beads at a flow rate of 0.84 ml/min for 20.6 hours. The eluted solution was collected in fractions, and the elution fractions were analyzed with HPLC for lysozyme concentration using a Vydac C18 HPLC column. For the high-salt elution, the remaining lysozyme in the beads was then eluted with the high-salt elution buffer at a rate of […].
The amount of lysozyme protein that eluted with the PBS wash was 39.51 mg and, from the high salt elution, the amount of lysozyme was 40.34 mg. Accumulated percent lysozyme release (Y) was plotted against elution time (X).

**Q.** What does the source list for lysozyme?
**A.** amount of lysozyme eluted in the elution buffer ([1]; control portion, immediately eluted with high salt elution buffer alone): 10.5 mg/ml wet beads; amount of lysozyme eluted in the elution buffer ([1]; experimental portion (PBS washed beads, 19.6 hours), high salt elution buffer 1.0M ammonium sulfate, 50 mM sodium phosphate, pH 7.2): 3.72 mg/ml beads; amount of lysozyme released during the PBS wash ([1]; experimental portion, PBS pH 7.4 wash for 19.6 hours, UV detector): not detectable; release rate (slope of accumulated percent release vs elution time) ([2]; PBS elution at 0.84 ml/min, line equation Y=1.49X+0.242): 1.49 %/hr; amount of lysozyme protein eluted with the PBS wash ([2]; PBS pH 7.4, flow rate 0.84 ml/min for 20.6 hours, HPLC): 39.51 mg; amount of lysozyme from the high salt elution ([2]; remaining lysozyme eluted with high-salt elution buffer after the PBS wash): 40.34 mg
